Laboratory results as given in patent publication US20250099548A1, “PHARMACEUTICAL COMPOSITION FOR PREVENTING OR TREATING DEGENERATIVE BRAIN DISEASES, CONTAINING GLUCAGON-LIKE PEPTIDE-1 AND INTERLEUKIN-1 RECEPTOR ANTAGONIST” (GI INNOVATION, INC., priority 2022, published 2025).

Target: T1, IL-1Ra (interleukin-1 receptor alpha) (Homo sapiens, UniProt P14778)
T1 construct: purchased R&D systems
T1 sequence (P14778 18-569): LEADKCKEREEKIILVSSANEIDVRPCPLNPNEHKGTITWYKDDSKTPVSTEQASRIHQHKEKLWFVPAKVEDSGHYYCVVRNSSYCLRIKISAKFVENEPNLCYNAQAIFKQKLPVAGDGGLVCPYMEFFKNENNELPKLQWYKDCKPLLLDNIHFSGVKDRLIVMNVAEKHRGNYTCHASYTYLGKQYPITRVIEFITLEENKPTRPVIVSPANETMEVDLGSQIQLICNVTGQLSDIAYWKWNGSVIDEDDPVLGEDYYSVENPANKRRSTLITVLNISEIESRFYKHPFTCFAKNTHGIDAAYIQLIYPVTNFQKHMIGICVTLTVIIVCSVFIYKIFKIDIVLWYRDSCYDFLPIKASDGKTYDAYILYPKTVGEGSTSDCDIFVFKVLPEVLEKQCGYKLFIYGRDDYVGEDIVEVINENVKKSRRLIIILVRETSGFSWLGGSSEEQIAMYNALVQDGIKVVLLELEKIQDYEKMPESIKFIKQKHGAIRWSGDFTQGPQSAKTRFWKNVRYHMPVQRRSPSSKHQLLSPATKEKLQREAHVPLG
Assay: Binding ability of GI210B1 measured with Octet RED 384 (AR2G biosensor)
Settings: IL-1Ra 1 μg/ml coated on biosensor; GI210B1 15.6 nM to 1,000 nM
Method: The binding ability of GI210B1, which was obtained through the method of Preparation Example 1 above, to IL-1Ra ([…]) was measured. At that time, the binding ability to IL-1Ra was confirmed using Octet RED 384 (ForteBio). The AR2G (amine reactive 2nd generation) biosensor was used by immersion in 1× kinetic buffer for 10 minutes. IL-1Ra (R&D systems) was prepared at a concentration of 1 μg/ml and coated on the biosensor, and the binding ability was confirmed at each concentration by serially diluting GI210B1 from 15.6 nM to 1,000 nM.

GI210B1: fusion protein dimer comprising GLP-1 (SEQ ID NO: 2), IgG4 Fc domain and IL-1Ra; SEQ ID NO: 10
Ka(Association rate, 1/Ms): 22000 M⁻¹ s⁻¹
Kd(dissociation rate, 1/s): 0.0093 s⁻¹
